From patent US20260234255A1 (Genmab, published 2026)
Positions count from the first letter of the chain named. Names may count otherwise.

Assays:
[1] = biological target: T1, cynomolgus monkey (Macaca fascicularis) CD30 (cynomolgus monkey, UniProt P28908 19-595 (human entry)); experiment: flow cytometry, Expi293F cells transfected with cynomolgus monkey CD30 (mfCD30)
T1 construct: also called mfCD30
T1 chain: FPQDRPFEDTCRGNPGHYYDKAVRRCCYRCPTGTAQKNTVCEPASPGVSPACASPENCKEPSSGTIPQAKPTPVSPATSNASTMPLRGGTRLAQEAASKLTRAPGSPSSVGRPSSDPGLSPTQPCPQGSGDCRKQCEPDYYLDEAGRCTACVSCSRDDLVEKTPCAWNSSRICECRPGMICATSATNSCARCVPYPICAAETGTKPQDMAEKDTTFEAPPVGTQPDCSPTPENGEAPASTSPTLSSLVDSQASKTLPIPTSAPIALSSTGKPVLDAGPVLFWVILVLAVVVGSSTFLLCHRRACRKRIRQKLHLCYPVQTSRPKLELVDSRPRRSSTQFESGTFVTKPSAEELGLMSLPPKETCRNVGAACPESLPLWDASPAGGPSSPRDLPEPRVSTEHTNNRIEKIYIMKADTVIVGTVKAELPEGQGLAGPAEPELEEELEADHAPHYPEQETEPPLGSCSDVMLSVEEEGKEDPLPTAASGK
Protocol: Cells (3×10⁴ cells/well) were incubated in polystyrene 96-well round-bottom plates (Greiner bio-one, cat. no. 650180) with serial dilutions of antibodies (ranging from 0.005 to 10 μg/mL in 3-fold dilution steps) in 100 μL staining buffer at 4° C. for 30 min. Experiments were performed in technical duplicate. After washing twice in staining buffer, cells were incubated in 50 μL secondary antibody at 4° C. for 30 min. As a secondary antibody, R-PE-conjugated goat-anti-human IgG (Jackson ImmunoResearch, UK; cat. no. 109⁻¹¹⁶-098) diluted 1:400 in staining buffer was used. Cells were washed twice in staining buffer, resuspended in 30 μL staining buffer containing 0.4% EDTA and analyzed on an iQue Screener (Intellicyt Corporation, USA). Binding curves were analyzed using non-linear regression (sigmoidal dose-response with variable slope) using GraphPad Prism V9.0.0 software (GraphPad Software, San Diego, CA, USA).

human CD30 [2] = biological target: T2, human CD30 (human, UniProt P28908 19-595); experiment: flow cytometry, Expi293F cells transfected with human CD30
T2 construct: The same molecule is used for CD30 on HL/ALCL/NHL cell lines; also called huCD30; TNFRSF8
T2 sequence: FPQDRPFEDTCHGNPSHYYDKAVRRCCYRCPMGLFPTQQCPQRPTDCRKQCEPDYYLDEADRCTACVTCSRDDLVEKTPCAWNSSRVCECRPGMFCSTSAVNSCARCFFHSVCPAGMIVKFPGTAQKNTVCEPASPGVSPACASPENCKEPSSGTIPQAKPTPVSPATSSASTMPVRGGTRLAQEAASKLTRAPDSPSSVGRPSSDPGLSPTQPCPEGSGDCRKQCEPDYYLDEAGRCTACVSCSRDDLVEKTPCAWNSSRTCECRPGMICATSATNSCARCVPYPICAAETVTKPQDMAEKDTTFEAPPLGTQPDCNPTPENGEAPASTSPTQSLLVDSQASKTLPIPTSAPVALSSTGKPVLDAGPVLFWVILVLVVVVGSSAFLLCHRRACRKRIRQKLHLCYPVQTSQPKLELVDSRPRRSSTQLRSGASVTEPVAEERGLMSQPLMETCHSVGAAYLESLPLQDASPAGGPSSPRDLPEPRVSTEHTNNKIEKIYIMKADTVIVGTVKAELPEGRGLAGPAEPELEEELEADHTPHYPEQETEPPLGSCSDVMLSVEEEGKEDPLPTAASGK
Protocol: Data are presented as mean fluorescence intensity (MFI) values as determined by flow cytometry of two technical replicates. […] Data are presented as mean fluorescence intensity (MFI) values as determined by flow cytometry of one representative experiment.
Binding of bispecific CD3×CD30 antibodies and monospecific, bivalent CD30 antibodies to the plasma membrane of Expi293 cells transiently transfected with human CD30 or cynomolgus monkey CD30 was analyzed by flow cytometry.

human CD30 [3] = biological target: T2, human CD30; experiment: flow cytometry, L-1236 cells
human CD30 [4] = biological target: T2, human CD30; experiment: flow cytometry, KM-H2 cells
human CD30 [5] = biological target: T2, human CD30; experiment: flow cytometry, JVM-2 cells
human CD30 [6] = biological target: T2, human CD30; experiment: flow cytometry, L-540 cells
human CD30 [7] = biological target: T2, human CD30; experiment: flow cytometry, SR-786 cells
human CD30 [8] = biological target: T2, human CD30; experiment: flow cytometry, DL-40 cells
human CD30 [9] = biological target: T2, human CD30; experiment: flow cytometry, HH cells
Protocol: Cells (3×10⁴ cells/well) were incubated in polystyrene 96-well round-bottom plates (Greiner bio-one, cat. no. 650180) with serial dilutions of antibodies (range 0.0046 to 10 μg/mL in 3-fold dilution steps) in 50 μL staining buffer at 4° C. for 30 min. After washing twice in staining buffer, cells were incubated with 50 μL secondary antibody at 4° C. for 30 min. […] Next, cells were washed twice in staining buffer, resuspended in 100 μL staining buffer supplemented with TO-PRO-3 iodide (Thermo Fisher Scientific; cat. no. T3605; 1:8000 dilution) and analyzed on a FACSCelesta flow cytometer (BD Biosciences, USA). Live cells were gated based on FSC/SSC and absence of TOPRO-3 staining. Binding curves were analyzed by non-linear regression of log-transformed data (sigmoidal dose-response with variable slope, four parameters) using GraphPad Prism V7.02 software (GraphPad Software, San Diego, CA, USA).

human CD30 [10] = biological target: T2, human CD30; experiment: flow cytometry, NCEB-1 cells
human CD30 [11] = biological target: T2, human CD30; experiment: flow cytometry, SUP-M2 cells
human CD30 [12] = biological target: T2, human CD30; experiment: flow cytometry, L-82 cells
human CD3 = biological target: T3, human CD3 (human, UniProt P07766 23-207); experiment: flow cytometry, primary human T cells
T3 construct: CD3 endogenously expressed on primary human T cells (whole TCR/CD3 complex); also called human CD3 (epsilon)
Protocol: Cynomolgus monkey PBMCs (Tebu-Bio, The Netherlands; cat. no. PBMCMFA-10) or purified human T cells were plated in polystyrene 96-well round-bottom plates. T cells were derived from human donor buffy coats (Sanquin, Amsterdam, The Netherlands) and isolated using the RosetteSep human T cell enrichment cocktail (Stemcell Technologies, France, cat. no. 15061) according to manufacturer's instructions. […] After washing twice in staining buffer, cells were incubated in 50 μL secondary R-PE-conjugated goat-anti-human IgG antibody at 4° C. for 30 min (1:400 dilution). After washing twice in staining buffer, T cells were stained for T-cell markers CD3 (1:100; Miltenyi biotec, clone 10D12, conjugated to APC), CD4 (1:50; eBioscience, clone OKT4, conjugated to APC-Cy7), CD8 (1:100; Biolegend, clone RPA-T8, conjugated to AF700) and T-cell activation markers CD69 (1:50; BD Biosciences, clone AB2439, conjugated to FITC), CD25 (1:50; eBioscience, clone BC96, conjugated to PE-Cy7) and CD279/PD1 (1:50; BD Biosciences, clone AEH12.2H7, conjugated to BV605). Single stained samples with Ultracomp beads (5 μL; Invitrogen, cat. no. 01-2222-42) were used for compensation adjustments of the flow cytometer. After 30 min of incubation at 4° C., cells were washed twice with staining buffer, resuspended in 100 μL staining buffer and analyzed using a FACS Fortessa (BD Biosciences). […]

cynomolgus monkey CD3 = biological target: T4, cynomolgus monkey CD3 (cynomolgus monkey, UniProt Q95LI5 22-198); experiment: flow cytometry, cynomolgus monkey T cells (PBMCs)
T4 construct: CD3 endogenously expressed on T cells within cynomolgus monkey PBMCs
Protocol: Cynomolgus monkey PBMCs (Tebu-Bio, The Netherlands; cat. no. PBMCMFA-10) or purified human T cells were plated in polystyrene 96-well round-bottom plates. T cells were derived from human donor buffy coats (Sanquin, Amsterdam, The Netherlands) and isolated using the RosetteSep human T cell enrichment cocktail (Stemcell Technologies, France, cat. no. 15061) according to manufacturer's instructions. […] After washing twice in staining buffer, cells were incubated in 50 μL secondary R-PE-conjugated goat-anti-human IgG antibody at 4° C. for 30 min (1:400 dilution). After washing twice in staining buffer, T cells were stained for T-cell markers CD3 (1:100; Miltenyi biotec, clone 10D12, conjugated to APC), CD4 (1:50; eBioscience, clone OKT4, conjugated to APC-Cy7), CD8 (1:100; Biolegend, clone RPA-T8, conjugated to AF700) and T-cell activation markers CD69 (1:50; BD Biosciences, clone AB2439, conjugated to FITC), CD25 (1:50; eBioscience, clone BC96, conjugated to PE-Cy7) and CD279/PD1 (1:50; BD Biosciences, clone AEH12.2H7, conjugated to BV605). Single stained samples with Ultracomp beads (5 μL; Invitrogen, cat. no. 01-2222-42) were used for compensation adjustments of the flow cytometer. After 30 min of incubation at 4° C., cells were washed twice with staining buffer, resuspended in 100 μL staining buffer and analyzed using a FACS Fortessa (BD Biosciences). Data were processed using FlowJo (BD Biosciences).

human CD30 [13] = biological target: T2, human CD30; experiment: flow cytometry, HDLM-2 cells
Method in brief: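 CD3×CD30 bispecific antibodies, serially diluted 3-fold from 10 to 0.0046 μg/mL, were incubated with 3×10⁴ cells/well at 4° C for 30 min, then with a secondary antibody at 4° C for 30 min. Live cells were gated by FSC/SSC and TO-PRO-3 exclusion, and curves were fitted by four-parameter sigmoidal regression.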

T4 sequence (Q95LI5 22-198): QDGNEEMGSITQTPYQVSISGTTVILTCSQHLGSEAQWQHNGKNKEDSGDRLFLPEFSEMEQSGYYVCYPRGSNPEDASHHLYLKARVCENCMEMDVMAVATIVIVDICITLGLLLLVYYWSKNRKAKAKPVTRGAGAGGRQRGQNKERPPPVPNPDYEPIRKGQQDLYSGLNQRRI
T3 sequence (P07766 23-207 limits assumed): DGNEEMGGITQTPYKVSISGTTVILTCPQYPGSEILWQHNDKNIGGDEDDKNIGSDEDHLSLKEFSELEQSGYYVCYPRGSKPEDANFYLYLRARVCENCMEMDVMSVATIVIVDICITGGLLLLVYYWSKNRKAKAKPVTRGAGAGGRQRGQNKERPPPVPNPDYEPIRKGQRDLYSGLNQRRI

B1: bsG1-huCD3-H101G-FEALxCD30-MDX060-FEAR (bispecific antibody, human IgG1, kappa, lambda)
heavy 1: not shown
light 1: not shown
heavy 2: QVQLQQWGAGLLKPSETLSLTCAVYGGSFSAYYWSWIRQPPGKGLEWIGDINHGGGTNYNPSLKSRVTISVDTSKNQFSLKLNSVTAADTAVYYCASLTAYWGQGSLVTVSSASTKGPSVFPLAPSSKSTSGGTAALGCLVKDYFPEPVTVSWNSGALTSGVHTFPAVLQSSGLYSLSSVVTVPSSSLGTQTYICNVNHKPSNTKVDKRVEPKSCDKTHTCPPCPAPEFEGGPSVFLFPPKPKDTLMISRTPEVTCVVVAVSHEDPEVKFNWYVDGVEVHNAKTKPREEQYNSTYRVVSVLTVLHQDWLNGKEYKCKVSNKALPAPIEKTISKAKGQPREPQVYTLPPSREEMTKNQVSLTCLVKGFYPSDIAVEWESNGQPENNYKTTPPVLDSDGSFFLYSRLTVDKSRWQQGNVFSCSVMHEALHNHYTQKSLSLSPG
light 2: DIQMTQSPTSLSASVGDRVTITCRASQGISSWLTWYQQKPEKAPKSLIYAASSLQSGVPSRFSGSGSGTDFTLTISSLQPEDFATYYCQQYDSYPITFGQGTRLEIKRTVAAPSVFIFPPSDEQLKSGTASVVCLLNNFYPREAKVQWKVDNALQSGNSQESVTEQDSKDSTYSLSSTLTLSKADYEKHKVYACEVTHQGLSSPVTKSFNRGEC
notes: Variant of m7 whose CD3 arm carries H101G
binding result [1]: binds | binding result (human CD30 [2]): binds

B2: bsG1-b12-FEALxCD30-MDX060-FERR (bispecific antibody, human IgG1, kappa)
heavy 1: QVQLVQSGAEVKKPGASVKVSCQASGYRFSNFVIHWVRQAPGQRFEWMGWINPYNGNKEFSAKFQDRVTFTADTSANTAYMELRSLRSADTAVYYCARVGPYSWDDSPQDNYYMDVWGKGTTVIVSSASTKGPSVFPLAPSSKSTSGGTAALGCLVKDYFPEPVTVSWNSGALTSGVHTFPAVLQSSGLYSLSSVVTVPSSSLGTQTYICNVNHKPSNTKVDKRVEPKSCDKTHTCPPCPAPEFEGGPSVFLFPPKPKDTLMISRTPEVTCVVVAVSHEDPEVKFNWYVDGVEVHNAKTKPREEQYNSTYRVVSVLTVLHQDWLNGKEYKCKVSNKALPAPIEKTISKAKGQPREPQVYTLPPSREEMTKNQVSLTCLVKGFYPSDIAVEWESNGQPENNYKTTPPVLDSDGSFLLYSKLTVDKSRWQQGNVFSCSVMHEALHNHYTQKSLSLSPG
light 1: EIVLTQSPGTLSLSPGERATFSCRSSHSIRSRRVAWYQHKPGQAPRLVIHGVSNRASGISDRFSGSGSGTDFTLTITRVEPEDFALYYCQVYGASSYTFGQGTKLERKRTVAAPSVFIFPPSDEQLKSGTASVVCLLNNFYPREAKVQWKVDNALQSGNSQESVTEQDSKDSTYSLSSTLTLSKADYEKHKVYACEVTHQGLSSPVTKSFNRGEC
heavy 2: B1 heavy 2 with G231R, A260D
light 2: B1 light 2
notes: Monovalent CD30 control antibody
EC50 (read off the curve) (human CD30 [3]): ~0.2 µg/mL | EC50 (read off the curve) (human CD30 [4]): ~0.1 µg/mL | EC50 (read off the curve) (human CD30 [5]): ~0.1 µg/mL | EC50 (read off the curve) (human CD30 [6]): ~0.5 µg/mL | EC50 (read off the curve) (human CD30 [7]): ~0.3 µg/mL | EC50 (read off the curve) (human CD30 [8]): ~0.3 µg/mL | EC50 (read off the curve) (human CD30 [9]): ~0.4 µg/mL | EC50 (read off the curve) (human CD30 [10]): ~0.2 µg/mL | EC50 (read off the curve) (human CD30 [11]): ~0.2 µg/mL | EC50 (read off the curve) (human CD30 [12]): ~0.2 µg/mL

B3: IgG1-CD30-MDX060-FEAR (antibody)
heavy: B1 heavy 2
light: B1 light 2
notes: Monospecific, bivalent parental antibody; also called IgG1-MDX060-FEAR
binding result (human CD3): no binding (tested: 10 ug/mL) | binding result (cynomolgus monkey CD3): no binding (tested: 10 ug/mL) | binding result [1]: binds | EC50 (read off the curve) (human CD30 [13]): ~0.2 µg/mL
